Test results published in PMC2120156 (The Journal of Cell Biology, 1994).

Biological target: filamentous actin (F-actin) from rabbit skeletal muscle (rabbit, UniProt P68135 1-377)
Experiment: co-sedimentation

B1: MBPVinc8 (maltose binding protein fused to vinculin tail residues 809-1063) (domain or fragment)
chain: SDPGLQKSFLDSGYRILGAVAKVREAFQPQEPDFPPPPPDLEHLHLTDELAPPKPPLPEGEVPPPRPPPPEEKDEEFPEQKAGEAINQPMMMAARQLHDEARKWSSKGNDIIAAAKRMALLMAEMSRLVRGGSGNKRALIQCAKDIAKASDEVTRLAKEVAKQCTDKRIRTNLLQVCERIPTISTQLKILSTVKATMLGRTNISDEESEQATEMLVHNAQNLMQSVKETVREAEAASIKIRTDAGFTLRWVRKTP
- stoichiometry N: 1.18 mol MBPVinc8 per mol actin

B2: gizzard vinculin (intact, 116 kD) (natural protein)
chain: MPVFHTRTIESILEPVAQQISHLVIMHEEGEVDGKAIPDLTAPVSAVQAAVSNLVRVGKETVQTTEDQILKRDMPPAFIKVENACTKLVRAAQMLQADPYSVPARDYLIDGSRGILSGTSDLLLTFDEAEVRKIIRVCKGILEYLTVAEVVETMEDLVTYTKNLGPGMTKMAKMIDERQQELTHQEHRVMLVNSMNTVKELLPVLISAMKIFVTTKNTKSQGIEEALKNRNFTVEKMSAEINEIIRVLQLTSWDEDAWASKDTEAMKRALALIDSKMNQAKGWLRDPNAPPGDAGEQAIRQILDEAGKAGELCAGKERREILGTCKTLGQMTDQLADLRARGQGATPMAMQKAQQVSQGLDLLTAKVENAARKLEAMTNSKQAIAKKIDAAQNWLADPNGGSEGEEHIRGIMSEARKVAELCEEPKERDDILRSLGEISALTAKLSDLRRHGKGDSPEARALAKQIATSLQNLQSKTNRAVANTRPVKAAVHLEGKIEQAQRWIDNPTVDDRGVGQAAIRGLVAEGRRLANVMMGPYRQDLLAKCDRVDQLAAQLADLAARGEGESPQARAIAAQLQDSLKDLKARMQEAMTQEVSDVFSDTTTPIKLLAVAATAPSDTPNREEVFEERAANFENHAARLGATAEKAAAVGTANKTTVEGIQATVKSARELTPQVVSAARILLRNPGNQAAYEHFETMKNQWIDNVEKMTGLVDEAIDTKSLLDASEEAIKKDLDKCKVAMANMQPQMLVAGATSIARRANRILLVAKREVENSEDPKFREAVKAASDELSKTISPMVMDAKAVAGNISDPGLQKSFLDSGYRILGAVAKVREAFQPQEPDFPPPPPDLEHLHLTDELAPPKPPLPEGEVPPPRPPPPEEKDEEFPEQKAGEAINQPMMMAARQLHDEARKWSSKGNDIIAAAKRMALLMAEMSRLVRGGSGNKRALIQCAKDIAKASDEVTRLAKEVAKQCTDKRIRTNLLQVCERIPTISTQLKILSTVKATMLGRTNISDEESEQATEMLVHNAQNLMQSVKETVREAEAASIKIRTDAGFTLRWVRKTPWYQ
- stoichiometry N: 0.5 mol vinculin per mol actin
